{
  "source": "paper PMC10616597",
  "origin": "cited, not measured here",
  "target": "TLR4 (Homo sapiens) (UniProt O00206)",
  "sequence (O00206 24-839)": "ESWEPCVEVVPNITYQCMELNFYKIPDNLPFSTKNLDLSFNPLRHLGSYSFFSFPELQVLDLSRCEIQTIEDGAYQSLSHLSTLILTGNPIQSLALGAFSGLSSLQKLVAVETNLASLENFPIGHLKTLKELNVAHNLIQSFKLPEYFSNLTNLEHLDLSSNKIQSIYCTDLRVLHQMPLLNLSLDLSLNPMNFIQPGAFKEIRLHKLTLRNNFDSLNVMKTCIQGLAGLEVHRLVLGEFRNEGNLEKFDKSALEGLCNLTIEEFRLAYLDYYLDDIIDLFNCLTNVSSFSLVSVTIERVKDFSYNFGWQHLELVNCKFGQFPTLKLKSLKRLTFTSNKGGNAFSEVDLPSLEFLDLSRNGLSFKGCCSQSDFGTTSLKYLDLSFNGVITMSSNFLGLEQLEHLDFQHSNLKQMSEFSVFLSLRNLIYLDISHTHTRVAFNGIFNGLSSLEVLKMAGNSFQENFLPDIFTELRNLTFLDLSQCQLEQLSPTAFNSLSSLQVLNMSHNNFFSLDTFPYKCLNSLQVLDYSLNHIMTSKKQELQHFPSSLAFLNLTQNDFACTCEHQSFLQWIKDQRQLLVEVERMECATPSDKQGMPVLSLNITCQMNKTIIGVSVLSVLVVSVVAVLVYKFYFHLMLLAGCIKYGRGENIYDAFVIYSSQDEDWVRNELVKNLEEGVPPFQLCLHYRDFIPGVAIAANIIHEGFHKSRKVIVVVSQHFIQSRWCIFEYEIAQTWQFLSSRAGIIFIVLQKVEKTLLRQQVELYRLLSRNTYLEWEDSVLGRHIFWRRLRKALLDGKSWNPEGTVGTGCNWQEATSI",
  "data": [
    {"substance": "eNAMPT (from UniProt P43490)", "values": [
      {"measurement": "Kd", "result": 18, "unit": "nM"}
    ]}
  ]
}
